From article PMC3589475, “Large-Scale Functional Purification of Recombinant HIV-1 Capsid” (PLoS ONE, 2013)

Legend:
[1] = molecular target: wild-type HIV-1 capsid protein (WT CA) (HIV-1 (pLAI.2)) (UniProt P03348); assay: AUC; sedimentation velocity, WT CA at 0.94, 1.88, 3.75 and 7.5 µM, 50 mM sodium phosphate pH 7.5, 25°C, 45,000 rpm; monomer to dimer, at high protein concentration
[2] = molecular target: quadruple mutant (A14C/E45C/W184A/M185A) CA monomer (CA 4Mu) (HIV-1 (NL4-3 strain)); assay: AUC; sedimentation velocity, cross-linked CA 4Mu hexamer at 4.13, 8.25 and 16.5 µM (as monomers), 50 mM sodium phosphate pH 7.5, 25°C, 45,000 rpm, no reducing agent
[3] = molecular target: HIV-1 capsid (CA) (Human immunodeficiency virus 1) (UniProt O93182); settings: cited from earlier work

## wild-type HIV-1 capsid protein (WT CA) (from UniProt P03348 133-363) (natural protein)
[1]
  stoichiometry N: 2

## quadruple mutant (A14C/E45C/W184A/M185A) CA monomer (CA 4Mu) (natural protein)
[2]
  percent in hexameric form: 94%
  stoichiometry N: 6

## HIV-1 capsid (CA) (from UniProt O93182)
[3]
  Kd: 14 µM
